The data set deals with the molecule itself. The experiment in a line: crystal structure; in meso (monoolein mesophase) crystallization of apo GltTk, 21 °C; space groups H3_(2) and P6_(3)22; one protomer in the asymmetric unit, trimer generated by crystal symmetry.

1 protein from paper PMC10767699, “Custom Design of a Humidifier Chamber for InMeso Crystallization” (Crystal Growth & Design, 2023) can be followed below.

A word on the stoichiometry N: it is a count of units in the complex or per binding partner.

B1: transmembrane aspartate transporter GltTk from Thermococcus kodakarensis (natural protein)
chain: MGKSLLRRYLDYPVLWKILWGLVLGAVFGLIAGHFGYAGAVKTYIKPFGDLFVRLLKMLVMPIVLASLVVGAASISPARLGRVGVKIVVYYLATSAMAVFFGLIVGRLFNVGANVNLGSGTGKAIEAQPPSLVQTLLNIVPTNPFASLAKGEVLPVIFFAIILGIAITYLMNRNEERVRKSAETLLRVFDGLAEAMYLIVGGVMQYAPIGVFALIAYVMAEQGVRVVGPLAKVVGAVYTGLFLQIVITYFILLKVFGIDPIKFIRKAKDAMITAFVTRSSSGTLPVTMRVAEEEMGVDKGIFSFTLPLGATINMDGTALYQGVTVLFVANAIGHPLTLGQQLVVVLTAVLASIGTAGVPGAGAIMLAMVLQSVGLDLTPGSPVALAYAMILGIDAILDMGRTMVNVTGDLAGTVIVAKTEKELDESKWISHHHHHHHH
Turning to B1, the “stoichiometry N” value was found to be 3.
